B1: mAb1-2 (antibody, V domains shown)
VH: EVQLVESGGGLVQPGGSLRLSCAASGFIFSNYWMSWVRQAPGKGPEWVANIKQDGSANHYVDSVKGRFTISRDNAKNSLYLQMNSLRAEDTAVYYCAREAYQDWNYDYWGQGTLVTVSS
VL: DIQMTQSPSSLSASVGDRVTVTCRASEFISRYLNWYQQKPGKAPKVLIYAASSLQSGVPSRFSGSGSGTDFTLTISSLQPEDFATYYCQQSYSTPYTFGQGTKLEIK
notes: also called Fab1-2 (so named in the dot blot sentence)
B2: mAb1-3 (antibody, V domains shown)
VH: VQLVESGGGVVQPGRSLRLSCAASGFSFSSFVFHWVRQAPGKGLEWVAVISYDGSNKNYADSVKGRFTISRDNSKNTLFLQMNSLSADDTAVYYCARGAICSSTTCYLGDSYYFYGMDVWGQGTTVTVSS
VL: LTQPPSVSGAPGQRVTISCTGSRSNIGAGYDVHWYQQLPGTAPKLLIYGNSNRPSGVPDRFSGSKSGTSASLAITGLQTDDEADYYCQSYDSSLSGSVFGGGTKLTVL
B3: mAb1-4 (antibody, V domains shown)
VH: QVQVVESGAEVKKPGASVKVSCKASGYAFTTYYMHWVRQAPGQGLEWMGLINPSGDSITYAQRFQGRVTMTKDTSTSTVYMELSSLRSEDTAIYYCARDPNVAFYYGSGNYYKDNAMDVWGQGTTVTVSS
VL: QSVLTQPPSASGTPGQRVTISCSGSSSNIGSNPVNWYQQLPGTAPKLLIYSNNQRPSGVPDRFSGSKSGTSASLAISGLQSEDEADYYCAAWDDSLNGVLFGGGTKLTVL
B4: mAb1-5 (antibody, V domains shown)
VH: EVQLVESGGGLVKPGGSLRLSCAASGFMFSSYSMNWVRQAPGKGLEWVSSISRSDSYIDYADSVKGRFTISRDTAMNVLYLQMDSLRAEDTGVYYCARTHVFNMFREVINDDYYGMDVWGQGTTVTVS
VL: ALTQPASVSGSPGQSITISCTGTSSDFGIYNSVSWYQHHPGKAPKLMIFGVSNRPSGVSNRFSGSKSGNTASLSISGLQAEDEADYYCSSFTARSTVVFGGGTKLTVL
B5: mAb1-7 (antibody, V domains shown)
VH: QVQLQESGPGLVKPSETLSLTCTVSGDSIRSYYWSWIRQPPGKGLEWIGHIYYSGSTNYKPSLKSRATILVDTSKNQFSLKLRSVTAADTAVYYCAREMTGVAGRGWDHWGQGTLVTVSS
VL: ALTQPPSASGTPGQRVTISCSGSSSNIGSNTVNWYQQLPGTAPKLLIFINNQRPSGVPDRFSGSKSGTSASLAISGLQSEDEADYYCTTWDGSLNGYVFGTRTEVTVL
B6: mAb2-1 (antibody, V domains shown)
VH: EVQLLESGGGLVQPGKSLRLSCAASGFSFSNYAMSWVRQAPGKGLEWVSGISGSGGSTNYAESVRGRFTISRDNSKNTLYLEMNSLRVEDTAVYYCAKGMSYYDRSGYFWAKYHYGMDVWGQGITVTVSS
VL: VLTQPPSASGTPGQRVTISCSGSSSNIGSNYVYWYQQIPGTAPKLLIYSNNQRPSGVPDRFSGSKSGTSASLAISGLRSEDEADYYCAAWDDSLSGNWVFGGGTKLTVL
B7: mAb2-2 (antibody, V domains shown)
VH: QVQLQESGPGLVKPSVTLSLTCTVSGDSISTYYWSWVRQPPGKGLEWIGYIYYSGNTNYNPSLKSRVTMSVDTSKNQFSLKLNSVTAADTAVYYCARTHHDYGDYRPSYYFDYWGQGTLVTVSS
VL: QSALTQPASVSGSPGQSITISCTGTSSDVGAYDYVSWYQQHPGKAPKLMIYDVSNRPSSGVSNRFSGSKSGNTASLTISGLQAEDEADYYCSSYTSSSTVILGGGTKLTVL
B8: mAb2-3 (antibody, V domains shown)
VH: VQLVESGGGLVKPGGSLRLSCATSGFTFSDYYMSWIRQAPGKGLEWVSYISSSGSTIYYADSVKGRFTMSRDNAKNSLFLRMNSLRAEDTAVYYCARDQITVDREVIRAHYYYGMDVWGQGTTVTVS
VL: DIQMTQSPSSVSASVGDRVTITCRASQGINSYLAWYQQKPGKAPKLLIYAASSLESGVPSRFSGSGSGTDFTLTISSLQPEDFATYYCQQANSFPLTFGGGTKVDI
B9: mAb2-4 (antibody, V domains shown)
VH: EVQLLESGGGLVHPGGSLRLSCAASGFPFSNFAMSWVRQAPGKGLEWVSTISGSSGSTYYADSVRGRFTISRDYSKNTVYLEMNSLRADDTAIYYCAKDRMITFGEVIVKHYDAFEIWGQGTRVAV
VL: DIQMTQSPSSLSASVGDRVTITCRASQTISTNVNWYQQKPGKAPKLLIYAASSLQSGVPSRFSGSGSGTDFTLTISSLQPEDFATFYCQQSYSAPLTFGEGTKV
B10: mAb2-5 (antibody, V domains shown)
VH: EVQLVESGGGLVKPGGSPRLSCAASGFNFGSYSMNWVRQAPGKGLEWVSSISSSSSYIYYADSVKGRFTISRDNAKHSLYLQVNSLRAEDTAVYYCARDPTTYGYNSAWDKKGWYFDLWGRGTLLTVS
VL: VLTQPPSVSAAPGQMVTISCSGSSSNIGNDYISWYQQLPGTAPKLLIYDNNERPSGIPDRFSGSKSGTSATLGITGVQTGDEADYYCGTWDSSLSAWVFGEGTKLTVV
B11: mAb2-6 (antibody, V domains shown)
VH: VQLLESGGALVQPGGSLRLSCAASGFSFSNYAMSWVRQAPGKGLEWVSTISASGGTTYFADSVKGHFTISRDNSKNTLYLQMDSLRAEDTAVYYCAKDPNYYDLSGYFLGGYYFDYWGQGTLVTVSS
VL: EIVLTQSPGTLSLSPGERATLSCRASQSVRSSYLAWYQQKPGQAPRLLIYGASSRATDIPDRFSGSGSGTDFTLTISRLEPEDFAVYYCQQYGTSPAFGGGTKV
B12: mAb3-1 (antibody, V domains shown)
VH: EVQLLESGGGLVQPGGSLRLSCEASGFTFSRYPMNWVRQAPGKGLEWVSHISASGGTTYYADTVKGRFSISRDNSKNTLYLEMNSLRAEDTAIYFCAKDYPPDEVTMIVVGMPYFDSWGLGTLVSVSS
VL: not shown
B13: mAb3-2 (antibody, V domains shown)
VH: EVQLLESGGGLVQPGGSLRLSCAASGFTFSNYAMSWVRQAPGKGLEWVSLISGSGGSIDYADSVKGRFTISRDNSKNTLYLQMDSLRAEDTAVYYCSKDPIYYDLSGYYAGRIYYFDYWGQGTLVTVSS
VL: EIVMTQSPATLSVSPGDTATLSCRASHSVSRDLAWYQQKPGQAPRLLIYDASTRATGIPARFSGSGSGTEFTLTISSLQSEDFAVYYCQQYINWVTFGPGTKVDIE
B14: mAb3-3 (antibody, V domains shown)
VH: QVQLQESGPGLVKSSETLSLTCTVSGESISSSSHYWGWIRQPPGKGLEFLGNVYYLGSTYYNPSLESRVTILLDTSKNQFSLKVNSVTVADTAVYYCARHGAGSYSGLFFDYWGQGARVIVSS
VL: DIQMTQSPSFVSASVGDRVNITCRASQGINSWLAWYQQKPGKAPKLLIYSASSLQSGVPSRFSGSGSGTDFTLTISTLQPEDFATYYCQQANSFPYTFGQGTKVD
B15: mAb3-4 (antibody, V domains shown)
VH: AVESGGGLVKPGGPLRLSCAASGFSLSDNYMTWIRQAPGKGLEWVSYISSSGSFINYADSVKGRFTISRDNAKNSLYLQMNSLRAEDTAVYYCARVLSSGGLTTSWRALWYFDVWGRGTLVTVS
VL: TVVTQEPSFSVSPGGTVTLTCGLTSGSVSTSYYPSWYQQTPGQTPRTLIYSTNIRSSGVPDRFSGSILGNKAALTITGAQADDECDYYCVLYMGSGIWVFGGGTKLTVL
B16: mAb3-5 (antibody, V domains shown)
VH: EVQLVESGGGLVQPGGSLRLSCAASGFTFSNYGMNWVRQAPGKGLEWVSYISSGGTIYYADSVKGRFTISRDNAKNSVYLQMNSLRAEDTAVYYCARDPAYCGDDCYTIPAHYFDYWGQGTPVTVS
VL: DIQMTQSPSSLSASVGDRVTITCRTSQSISRYLNWYQQKPGKAPKLLIYAASSLQSGVPSRFTGSGSGTDFTLTISSLQPEDFATYYCQQSYSIPPVTFGQGTRVD

These binders were tested against T1, AAV9 capsid (adeno-associated virus serotype 9, UniProt Q6JC40) (assay: far-Western, overlay or dot blot; native dot immunoblot: native capsids adsorbed onto nitrocellulose; human mAbs at ~1 µg/ml in PBS with 6% milk, 0.1% Tween-20, 1 h; anti-human-HRP). Settings: both partners purified.
T1 construct: also called wtAAV9; AAV9 vector; copies: 60
B1: binds. B2: binds. B3: binds. B4: binds. B5: binds. B6: binds. B7: binds. B8: binds. B9: binds. B10: binds. B11: binds. B12: binds. B13: binds. B14: binds. B15: binds. B16: binds.
